From paper PMC5464773 (2017)

T1: Myc-tagged Bcl-w (human, UniProt Q92843 1-193)
T1 chain: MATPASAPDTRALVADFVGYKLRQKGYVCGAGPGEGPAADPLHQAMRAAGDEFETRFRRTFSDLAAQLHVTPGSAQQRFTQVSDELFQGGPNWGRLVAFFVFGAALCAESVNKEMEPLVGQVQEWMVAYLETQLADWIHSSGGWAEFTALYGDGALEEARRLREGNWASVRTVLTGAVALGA

T2: Myc-tagged Bfl-1 (human, UniProt Q16548 1-175)
T2 chain: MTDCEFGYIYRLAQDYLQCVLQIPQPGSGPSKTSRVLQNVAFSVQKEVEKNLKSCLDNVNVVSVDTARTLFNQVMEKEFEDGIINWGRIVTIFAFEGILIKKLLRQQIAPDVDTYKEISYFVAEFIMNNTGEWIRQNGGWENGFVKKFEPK

T3: Myc-tagged Mcl-1 (human, UniProt Q07820 1-350)
T3 chain: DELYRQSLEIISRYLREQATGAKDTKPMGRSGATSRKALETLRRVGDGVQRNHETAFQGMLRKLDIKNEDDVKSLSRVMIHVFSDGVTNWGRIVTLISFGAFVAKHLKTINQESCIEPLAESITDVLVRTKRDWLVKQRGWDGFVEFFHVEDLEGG

B1: FS2 (designed binder)
chain: Ac-QWVREIAAGLRRAADDVNAQVER-NH2
B2: FS1 (designed binder)
chain: Ac-QWVREIAAGLRLAADNVNAQLER-NH2
B3: FS3 (designed binder)
chain: Ac-QWIREIAAGLRRFADILNAQVER-NH2
B4: PUMA BH3 peptide (23 residues) (peptide)
chain: Ac-QWAREIGAQLRRMADDLNAQYER-NH2
B5: PUMA/FS2 chimeric peptide with the larger residues of FS2 at positions 2a and 2e (peptide)
chain: Ac-QWVREIAAQLRRMADDLNAQYER-NH2
B6: PUMA/FS2 chimeric peptide with the smaller residues of FS2 at positions 2g, 3d, 4a and 4e (peptide)
chain: Ac-QWAREIGAGLRRAADDVNAQVER-NH2

Target: T1, Myc-tagged Bcl-w
Assay: FP

Ki | Binder
> 5000 nM | B1
> 5000 nM | B2
770 nM | B3
3 nM | B4

target: Myc-tagged Bcl-xL (human, UniProt Q07817-1 1-233); assay: FP
Sequence (Q07817 1-209): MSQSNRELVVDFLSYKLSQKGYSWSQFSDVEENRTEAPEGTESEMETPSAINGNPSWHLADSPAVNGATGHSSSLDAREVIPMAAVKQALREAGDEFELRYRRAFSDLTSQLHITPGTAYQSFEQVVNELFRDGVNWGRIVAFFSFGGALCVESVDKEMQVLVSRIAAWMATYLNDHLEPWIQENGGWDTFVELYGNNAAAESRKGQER

Ki | Binder
> 5000 nM | B1
2400 nM | B2
320 nM | B3

Target: T2, Myc-tagged Bfl-1
Assay: FP

Ki | Binder
21 nM | B1
2.1 nM | B3
4.8 nM | B4

Target: T3, Myc-tagged Mcl-1
Assay: FP

Ki | Binder
3200 nM | B1
> 5000 nM | B2
550 nM | B3
2.4 nM | B4

target: Myc-tagged Bcl-2 (human, UniProt P10415 1-239); assay: FP
Sequence (P10415 1-211): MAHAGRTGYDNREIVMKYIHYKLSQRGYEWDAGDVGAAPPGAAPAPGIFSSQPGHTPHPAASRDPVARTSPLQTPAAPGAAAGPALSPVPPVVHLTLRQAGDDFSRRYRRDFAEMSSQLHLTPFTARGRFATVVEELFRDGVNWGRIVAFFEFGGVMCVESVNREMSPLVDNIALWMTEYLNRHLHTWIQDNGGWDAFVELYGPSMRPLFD

Ki | Binder
2400 nM | B1
> 5000 nM | B2
2000 nM | B3

Target: T2, Myc-tagged Bfl-1
Assay: FP
Remark: another data set of the same source

Ki | Binder
2.1 nM | B5
600 nM | B6
